Experimental data: patent US20060009379A1 (GOVERNMENT OF THE UNITED STATES OF AMERICAN AS REPRESENTED …, published 2006)

B1: HA-tagged nucleostemin mutant dB (deletion of the basic domain, codons 2-46) (other)
chain: MDPGVPNSAPFKEALLREAELRKQQLEELKQQQKLDRQKEQERKRKLEISPDDEQSNVETQEESDEPKIKKAKSGKQNPKKLHCQELKKVIEASDIVLEVLDARDPLGCRCPQVEEAVIQSGCKKLVLVLNKSDLVPKENLENWLTYLNKELPTVVFKASTNLKNRKKTFKIKKKVVPFQSKLCCGKEALWKLLGGFQQSCGKGVQVGVVGFPNVGKSSIINSLKQERICSVGVSMGLTRSMQIVPLDKQITIIDSPCFIISPCNSPAALALRSPASIEVLRPLEAASAILSQADSQQVVLKYTVPGYKDSLDFFTKLAQRRGLHQKGGSPNVESAAKLLWSEWTGASLGYYCHPPASWNHSPHFNENITAIMKRGFNLEELEKNNAHSIQVLKGPHLTNKILFRSSGLTNGILEEKDIPEESPKQTEDQQDGDDQEHVTGEKNAEISDVTPVEETREMSPGQSTASKPSDRSFILDKMSEEDDAYDFTTDYI
notes: not shown: HA (hemagglutinin) tag
B2: HA-tagged nucleostemin mutant dA (deletion of the acidic domain, codons 460-503) (other)
chain: MKRPKLKKASKRMTCHKRYKIQKKVREHHRKLRKEAKKRGHKKPKKDPGVPNSAPFKEALLREAELRKQQLEELKQQQKLDRQKEQERKRKLEISPDDEQSNVETQEESDEPKIKKAKSGKQNPKKLHCQELKKVIEASDIVLEVLDARDPLGCRCPQVEEAVIQSGCKKLVLVLNKSDLVPKENLENWLTYLNKELPTVVFKASTNLKNRKKTFKIKKKVVPFQSKLCCGKEALWKLLGGFQQSCGKGVQVGVVGFPNVGKSSIINSLKQERICSVGVSMGLTRSMQIVPLDKQITIIDSPCFIISPCNSPAALALRSPASIEVLRPLEAASAILSQADSQQVVLKYTVPGYKDSLDFFTKLAQRRGLHQKGGSPNVESAAKLLWSEWTGASLGYYCHPPASWNHSPHFNENITAIMKRGFNLEELEKNNAHSIQVLKGPHLTNKILFRSSGLTNGILMSPGQSTASKPSDRSFILDKMSEEDDAYDFTTDYI
notes: as for B1
B3: HA-tagged nucleostemin mutant dCC (deletion of the coiled-coil domain, codons 61-87) (other)
chain: MKRPKLKKASKRMTCHKRYKIQKKVREHHRKLRKEAKKRGHKKPKKDPGVPNSAPFKEALRKRKLEISPDDEQSNVETQEESDEPKIKKAKSGKQNPKKLHCQELKKVIEASDIVLEVLDARDPLGCRCPQVEEAVIQSGCKKLVLVLNKSDLVPKENLENWLTYLNKELPTVVFKASTNLKNRKKTFKIKKKVVPFQSKLCCGKEALWKLLGGFQQSCGKGVQVGVVGFPNVGKSSIINSLKQERICSVGVSMGLTRSMQIVPLDKQITIIDSPCFIISPCNSPAALALRSPASIEVLRPLEAASAILSQADSQQVVLKYTVPGYKDSLDFFTKLAQRRGLHQKGGSPNVESAAKLLWSEWTGASLGYYCHPPASWNHSPHFNENITAIMKRGFNLEELEKNNAHSIQVLKGPHLTNKILFRSSGLTNGILEEKDIPEESPKQTEDQQDGDDQEHVTGEKNAEISDVTPVEETREMSPGQSTASKPSDRSFILDKMSEEDDAYDFTTDYI
notes: as for B1
B4: HA-tagged nucleostemin mutant dG4 (deletion of the G4 GTP-binding motif, codons 177-180) (other)
chain: MKRPKLKKASKRMTCHKRYKIQKKVREHHRKLRKEAKKRGHKKPKKDPGVPNSAPFKEALLREAELRKQQLEELKQQQKLDRQKEQERKRKLEISPDDEQSNVETQEESDEPKIKKAKSGKQNPKKLHCQELKKVIEASDIVLEVLDARDPLGCRCPQVEEAVIQSGCKKLVLVLNVPKENLENWLTYLNKELPTVVFKASTNLKNRKKTFKIKKKVVPFQSKLCCGKEALWKLLGGFQQSCGKGVQVGVVGFPNVGKSSIINSLKQERICSVGVSMGLTRSMQIVPLDKQITIIDSPCFIISPCNSPAALALRSPASIEVLRPLEAASAILSQADSQQVVLKYTVPGYKDSLDFFTKLAQRRGLHQKGGSPNVESAAKLLWSEWTGASLGYYCHPPASWNHSPHFNENITAIMKRGFNLEELEKNNAHSIQVLKGPHLTNKILFRSSGLTNGILEEKDIPEESPKQTEDQQDGDDQEHVTGEKNAEISDVTPVEETREMSPGQSTASKPSDRSFILDKMSEEDDAYDFTTDYI
notes: as for B1

Target: T1, GST-p53 fusion protein (UniProt P04637 1-393)
T1 construct: not shown: glutathione S-transferase (GST) fusion partner
T1 sequence (P04637 whole entry, the tested form may be a part): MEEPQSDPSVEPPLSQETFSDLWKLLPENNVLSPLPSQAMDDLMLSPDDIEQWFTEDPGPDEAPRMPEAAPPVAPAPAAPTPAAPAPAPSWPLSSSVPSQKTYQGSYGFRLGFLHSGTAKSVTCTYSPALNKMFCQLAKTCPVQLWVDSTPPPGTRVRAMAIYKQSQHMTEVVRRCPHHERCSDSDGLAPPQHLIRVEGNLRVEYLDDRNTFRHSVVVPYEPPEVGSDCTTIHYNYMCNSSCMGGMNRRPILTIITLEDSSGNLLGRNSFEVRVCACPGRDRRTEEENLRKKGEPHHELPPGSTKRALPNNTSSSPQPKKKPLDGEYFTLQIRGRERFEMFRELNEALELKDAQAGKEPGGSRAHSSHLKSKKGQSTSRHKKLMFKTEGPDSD
Assay: GST-p53 pull-down of HA-tagged protein from H1299 lysate, α-HA Western blot
Experimental: FIG. 6F is a digital image of mapping of p53-interacting region in nucleostemin by GST pull-down assay. […] The retained proteins (bound) were detected by α-HA Western blot and expressed as ratios to the input.
To map the interacting region between nucleostemin and p53, HA-tagged mutant proteins were expressed in H1299 cells and incubated with agarose-bound GST-p53 fusion protein in GST pull-down experiments. The amount of mutant proteins retained by GST-p53 fusion was measured by Western blot and presented as the ratio to the input proteins.

Binder | fold reduction of the amount bound, against wild-type nucleostemin | other results
B1 |  | binding of nucleostemin to p53 (retained protein, ratio to input): 17%
B2 | 1.5 fold | 
B3 | 1.5 fold | 
B4 |  | fold increase of the amount bound, against wild-type nucleostemin: 1.5 fold
